Columns and labels:
Assay in all cases: holdup assay
Parameters in all cases: key: below the threshold = too weak to quantify, mostly under pKd 3.1 to 4
[1] = target: Inadl_3, Q8NI35
[2] = target: T1, PARD3B_1, Q8TEW8
T1 sequence (Q8TEW8 196-299, limits assumed, looked up): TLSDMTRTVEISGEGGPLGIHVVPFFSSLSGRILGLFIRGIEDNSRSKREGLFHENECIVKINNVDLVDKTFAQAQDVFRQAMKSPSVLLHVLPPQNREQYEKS

[3] = target: FRMPD2_1, Q68DX3
[4] = target: T2, MPDZ_12, O75970
T2 sequence (O75970 1857-1958, limits assumed, looked up): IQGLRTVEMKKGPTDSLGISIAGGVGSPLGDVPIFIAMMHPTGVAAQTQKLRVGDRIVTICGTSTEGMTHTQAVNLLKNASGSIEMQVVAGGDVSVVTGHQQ

[5] = target: Inadl_6, Q8NI35
[6] = target: PICK1, Q9NRD5
[7] = target: TJP2_1, Q9UDY2
[8] = target: T3, FRMPD1, Q5SYB0
T3 sequence (Q5SYB0 52-145, limits assumed, looked up): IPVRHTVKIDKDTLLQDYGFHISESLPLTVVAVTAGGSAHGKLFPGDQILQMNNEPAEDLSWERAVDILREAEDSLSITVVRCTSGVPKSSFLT

[9] = target: GORASP2, Q9H8Y8
[10] = target: Inadl_8, Q8NI35
[11] = target: PTPN3, P26045
[12] = target: MAGI2_5, Q86UL8
[13] = target: GOPC, Q9HD26
[14] = target: MAGI2_4, Q86UL8
[15] = target: T4, LNX2_2, Q8N448
T4 sequence (Q8N448 334-432, limits assumed, looked up): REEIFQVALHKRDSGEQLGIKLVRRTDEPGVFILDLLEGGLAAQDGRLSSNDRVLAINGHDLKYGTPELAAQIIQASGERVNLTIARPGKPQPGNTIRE

[16] = target: FRMPD2_2, Q68DX3
[17] = target: T5, RAPGEF6, Q8TEU7
T5 sequence (Q8TEU7 525-625, limits assumed, looked up): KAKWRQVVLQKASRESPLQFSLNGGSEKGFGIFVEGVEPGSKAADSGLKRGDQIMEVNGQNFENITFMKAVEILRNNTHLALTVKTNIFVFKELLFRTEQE

[18] = target: T6, DLG3_1, Q92796
T6 sequence (Q92796 125-227, limits assumed, looked up): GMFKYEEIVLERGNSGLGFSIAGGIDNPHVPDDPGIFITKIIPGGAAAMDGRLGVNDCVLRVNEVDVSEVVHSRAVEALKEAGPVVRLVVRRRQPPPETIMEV

[19] = target: DLG4_1, P78352
[20] = target: T7, GRIP1_5, Q9Y3R0
T7 sequence (Q9Y3R0 568-668, limits assumed, looked up): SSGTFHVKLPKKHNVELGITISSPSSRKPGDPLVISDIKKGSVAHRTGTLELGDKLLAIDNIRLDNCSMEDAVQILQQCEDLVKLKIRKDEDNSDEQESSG

[21] = target: T8, SNTB1, Q13884
T8 sequence (Q13884 107-205, limits assumed, looked up): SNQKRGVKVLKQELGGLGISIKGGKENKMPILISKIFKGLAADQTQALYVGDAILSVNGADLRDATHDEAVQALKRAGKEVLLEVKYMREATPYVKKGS

[22] = target: MAST1, Q9Y2H9
[23] = target: MAST2, Q6P0Q8
[24] = target: HTRA2, O43464
[25] = target: SCRIB_3, Q14160
[26] = target: T9, DLG3_2, Q92796
T9 sequence (Q92796 221-321, limits assumed, looked up): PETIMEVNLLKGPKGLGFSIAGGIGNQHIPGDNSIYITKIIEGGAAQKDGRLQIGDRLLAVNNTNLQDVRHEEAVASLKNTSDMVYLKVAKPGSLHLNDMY

[27] = target: T10, TX1BP3, O14907
T10 sequence (O14907 10-122, limits assumed, looked up): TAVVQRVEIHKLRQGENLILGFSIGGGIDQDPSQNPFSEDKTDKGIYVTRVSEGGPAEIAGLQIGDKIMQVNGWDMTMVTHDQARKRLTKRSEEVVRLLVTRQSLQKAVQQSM

[28] = plain residues with an end cap or a label only (N-terminal biotin on a linker: ado-ado)
[29] = modified: phospho on T at position -2 from the C-terminal residue

Measured: pKd

HTRA2, O43464, sequence (O43464 355-458): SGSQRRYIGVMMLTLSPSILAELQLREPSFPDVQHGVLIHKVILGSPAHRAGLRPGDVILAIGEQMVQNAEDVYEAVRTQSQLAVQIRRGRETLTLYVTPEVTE
FRMPD2_2, Q68DX3, sequence (Q68DX3 944-1038): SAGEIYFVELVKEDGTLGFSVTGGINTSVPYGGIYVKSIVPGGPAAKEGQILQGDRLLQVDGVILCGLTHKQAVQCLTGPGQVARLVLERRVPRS
MAST2, Q6P0Q8, sequence (Q6P0Q8 1099-1202): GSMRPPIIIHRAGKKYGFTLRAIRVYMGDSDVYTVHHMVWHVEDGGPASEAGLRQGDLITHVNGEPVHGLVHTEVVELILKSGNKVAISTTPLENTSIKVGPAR
Inadl_3, Q8NI35, sequence (Q8NI35 359-469): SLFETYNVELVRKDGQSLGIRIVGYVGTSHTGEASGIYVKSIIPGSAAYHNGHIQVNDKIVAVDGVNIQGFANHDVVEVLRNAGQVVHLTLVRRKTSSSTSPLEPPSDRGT
SCRIB_3, Q14160, sequence (Q14160 999-1103): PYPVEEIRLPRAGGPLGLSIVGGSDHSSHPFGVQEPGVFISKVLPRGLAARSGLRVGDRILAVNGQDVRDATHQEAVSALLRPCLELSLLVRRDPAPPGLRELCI
PTPN3, P26045, sequence (P26045 505-587): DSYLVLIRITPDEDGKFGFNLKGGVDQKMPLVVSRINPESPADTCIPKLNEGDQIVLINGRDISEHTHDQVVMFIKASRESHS
MAST1, Q9Y2H9, sequence (Q9Y2H9 962-1065): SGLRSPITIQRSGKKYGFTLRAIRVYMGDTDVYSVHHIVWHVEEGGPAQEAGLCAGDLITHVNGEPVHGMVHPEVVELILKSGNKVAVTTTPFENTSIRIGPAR
MAGI2_5, Q86UL8, sequence (Q86UL8 915-1017): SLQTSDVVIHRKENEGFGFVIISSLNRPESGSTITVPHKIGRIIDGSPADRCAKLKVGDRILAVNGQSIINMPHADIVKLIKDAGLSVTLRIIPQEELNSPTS
DLG4_1, P78352, sequence (P78352 62-152): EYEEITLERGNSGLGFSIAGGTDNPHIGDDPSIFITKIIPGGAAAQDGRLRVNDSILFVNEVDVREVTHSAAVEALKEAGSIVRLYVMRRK
Inadl_6, Q8NI35, sequence (Q8NI35 1058-1167): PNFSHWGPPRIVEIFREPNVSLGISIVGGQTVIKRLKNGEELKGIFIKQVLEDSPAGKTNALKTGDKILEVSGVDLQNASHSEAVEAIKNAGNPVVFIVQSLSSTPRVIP
MAGI2_4, Q86UL8, sequence (Q86UL8 772-865): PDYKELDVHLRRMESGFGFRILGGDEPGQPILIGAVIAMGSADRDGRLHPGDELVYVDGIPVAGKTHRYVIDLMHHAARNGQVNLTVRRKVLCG
Inadl_8, Q8NI35, sequence (Q8NI35 1425-1530): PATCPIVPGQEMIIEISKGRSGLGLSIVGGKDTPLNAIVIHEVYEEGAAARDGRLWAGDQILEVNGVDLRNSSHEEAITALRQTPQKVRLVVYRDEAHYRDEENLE
PICK1, Q9NRD5, sequence (Q9NRD5 17-115): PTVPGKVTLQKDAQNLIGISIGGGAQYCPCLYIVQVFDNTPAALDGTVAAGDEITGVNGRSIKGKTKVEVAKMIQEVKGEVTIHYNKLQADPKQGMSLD
FRMPD2_1, Q68DX3, sequence (Q68DX3 770-861): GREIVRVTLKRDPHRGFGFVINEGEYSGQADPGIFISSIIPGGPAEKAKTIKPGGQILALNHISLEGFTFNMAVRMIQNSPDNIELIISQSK
TJP2_1, Q9UDY2, sequence (Q9UDY2 24-128): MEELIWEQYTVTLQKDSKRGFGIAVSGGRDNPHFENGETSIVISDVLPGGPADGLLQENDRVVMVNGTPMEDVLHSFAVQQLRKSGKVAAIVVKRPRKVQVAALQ

EEDTAEKDEL [HSPA5, P11021]
3.98: [22]; [28]
3.7: [23]; [28]
3.55: [14]; [28]
3.52: [4]; [28]
3.72: [2]; [28]
below the threshold: [1]; [28] | [3]; [28] | [5]; [28] | [6]; [28] | [7]; [28] | [8]; [28] | [9]; [28] | [10]; [28] | [11]; [28] | [12]; [28] | [13]; [28] | [15]; [28] | [16]; [28] | [17]; [28] | [18]; [28] | [19]; [28] | [20]; [28] | [21]; [28] | [24]; [28] | [25]; [28] | [26]; [28] | [27]; [28]

SMLNRRTTPV [CACNG4, Q9UBN1]
3.54: [3]; [28]
4.29: [10]; [28] | [22]; [28]
4.46: [26]; [28]
4.65: [23]; [28]
3.55: [16]; [28]
3.71: [18]; [28]
4.51: [19]; [28]
4.07: [21]; [28]
4.85: [27]; [28]
4.54: [11]; [28]
4.11: [25]; [28]
3.97: [7]; [28]
3.52: [14]; [28]
below the threshold: [1]; [28] | [2]; [28] | [4]; [28] | [5]; [28] | [6]; [28] | [8]; [28] | [9]; [28] | [12]; [28] | [13]; [28] | [15]; [28] | [17]; [28] | [20]; [28] | [24]; [28]

RRVRKLPSTTL [RPS6KA1_-2P, Q15418]
3.9: [2]; [29]
below the threshold: [1]; [29] | [3]; [29] | [4]; [29] | [5]; [29] | [6]; [29] | [7]; [29] | [8]; [29] | [10]; [29] | [11]; [29] | [12]; [29] | [13]; [29] | [14]; [29] | [15]; [29] | [16]; [29] | [17]; [29] | [18]; [29] | [19]; [29] | [20]; [29] | [21]; [29] | [22]; [29] | [23]; [29] | [24]; [29] | [25]; [29] | [26]; [29] | [27]; [29]
3.71: [9]; [29]

LSEFKAMDSF [CTNNA2, P26232]
3.59: [2]; [28]
below the threshold: [1]; [28] | [3]; [28] | [4]; [28] | [5]; [28] | [6]; [28] | [7]; [28] | [8]; [28] | [9]; [28] | [10]; [28] | [11]; [28] | [12]; [28] | [13]; [28] | [14]; [28] | [15]; [28] | [16]; [28] | [17]; [28] | [18]; [28] | [19]; [28] | [20]; [28] | [21]; [28] | [22]; [28] | [23]; [28] | [24]; [28] | [25]; [28] | [27]; [28]
4.16: [26]; [28]
